B1: Cadherin-1 (Mus musculus), P09803 (parent)
chain: MGARCRSFSALLLLLQVSSWLCQELEPESCSPGFSSEVYTFPVPERHLERGHVLGRVRFEGCTGRPRTAFFSEDSRFKVATDGTITVKRHLKLHKLETSFLVRARDSSHRELSTKVTLKSMGHHHHRHHHRDPASESNPELLMFPSVYPGLRRQKRDWVIPPISCPENEKGEFPKNLVQIKSNRDKETKVFYSITGQGADKPPVGVFIIERETGWLKVTQPLDREAIAKYILYSHAVSSNGEAVEDPMEIVITVTDQNDNRPEFTQEVFEGSVAEGAVPGTSVMKVSATDADDDVNTYNAAIAYTIVSQDPELPHKNMFTVNRDTGVISVLTSGLDRESYPTYTLVVQAADLQGEGLSTTAKAVITVKDINDNAPVFNPSTYQGQVPENEVNARIATLKVTDDDAPNTPAWKAVYTVVNDPDQQFVVVTDPTTNDGILKTAKGLDFEAKQQYILHVRVENEEPFEGSLVPSTATVTVDVVDVNEAPIFMPAERRVEVPEDFGVGQEITSYTAREPDTFMDQKITYRIWRDTANWLEINPETGAIFTRAEMDREDAEHVKNSTYVALIIATDDGSPIATGTGTLLLVLLDVNDNAPIPEPRNMQFCQRNPQPHIITILDPDLPPNTSPFTAELTHGASVNWTIEYNDAAQESLILQPRKDLEIGEYKIHLKLADNQNKDQVTTLDVHVCDCEGTVNNCMKAGIVAAGLQVPAILGILGGILALLILILLLLLFLRRRTVVKEPLLPPDDDTRDNVYYYDEEGGGEEDQDFDLSQLHRGLDARPEVTRNDVAPTLMSVPQYRPRPANPDEIGNFIDENLKAADSDPTAPPYDSLLVFDYEGSGSEAASLSSLNSSESDQDQDYDYLNEWGNRFKKLADMYGGGEDD

Variants of: B1
Conditions: with skp2_human SKP2, Q13309
Sequence of skp2_human SKP2, Q13309 (Q13309 whole entry): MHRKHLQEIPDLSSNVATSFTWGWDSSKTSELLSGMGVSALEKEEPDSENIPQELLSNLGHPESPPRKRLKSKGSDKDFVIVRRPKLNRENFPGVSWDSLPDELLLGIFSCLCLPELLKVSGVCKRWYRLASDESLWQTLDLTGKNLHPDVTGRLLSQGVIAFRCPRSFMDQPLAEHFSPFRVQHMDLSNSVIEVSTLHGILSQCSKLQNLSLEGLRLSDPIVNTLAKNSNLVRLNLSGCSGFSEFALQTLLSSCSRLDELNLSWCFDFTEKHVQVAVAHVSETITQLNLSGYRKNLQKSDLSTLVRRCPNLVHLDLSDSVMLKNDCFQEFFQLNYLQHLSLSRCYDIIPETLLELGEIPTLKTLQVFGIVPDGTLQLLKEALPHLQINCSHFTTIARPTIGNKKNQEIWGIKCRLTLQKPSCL

| effect of a mutation on the interaction | Variant |
| --- | --- |
| decreasing interaction strength | S840A;S842A;S846A;S849A;S852A;S855A |

— IntAct's records for PubMed 22770219
